US11975040B2, “Plexin binding regulator” (The University of Tokyo, priority 2016, dated 2024)
Read-outs that look alike come from different tables or passages of the source. Positions of bridges follow the written chain, without caps; N, C: chain ends. Non-standard residues stand in square brackets, D forms with d. Residues, ends and D or L forms follow the SMILES beside them. No end group written: not given here.

Tests used:
[1] = stability test with serum protease; type: in vitro ADME; settings: degradation by serum protease
Description: A stability test, with serum protease, of the cyclic peptide P6 and the cyclic peptide having an intramolecular lactam bridge structure was performed (FIG. 11c).

[2] = target: T1, mouse Plexin B1 and Semaphorin 4D (Mus musculus, UniProt Q8CJH3); experiment: in vitro pulldown assay of mouse Plexin B1 / Semaphorin 4D interaction (AP activity); type: biochemical; settings: compared with cyclic peptide P6
T1 sequence (Q8CJH3 20-535 limits assumed): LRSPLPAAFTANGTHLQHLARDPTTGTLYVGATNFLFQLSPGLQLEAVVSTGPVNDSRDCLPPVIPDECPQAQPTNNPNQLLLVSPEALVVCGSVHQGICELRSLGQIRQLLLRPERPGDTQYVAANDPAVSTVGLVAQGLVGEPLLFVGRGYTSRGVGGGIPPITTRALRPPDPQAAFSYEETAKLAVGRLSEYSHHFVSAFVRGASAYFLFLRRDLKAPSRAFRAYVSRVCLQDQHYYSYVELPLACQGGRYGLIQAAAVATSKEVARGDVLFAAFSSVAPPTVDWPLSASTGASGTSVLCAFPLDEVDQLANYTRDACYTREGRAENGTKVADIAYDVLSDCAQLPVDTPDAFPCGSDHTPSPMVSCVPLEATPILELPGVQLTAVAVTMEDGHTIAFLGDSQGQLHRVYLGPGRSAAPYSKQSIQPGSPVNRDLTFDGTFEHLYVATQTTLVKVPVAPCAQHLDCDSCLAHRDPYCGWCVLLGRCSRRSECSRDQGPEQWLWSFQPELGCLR
Description: The effect of the cyclic peptides shown in FIG. 2c on protein-protein interaction (PPI) of Plexin B1 and Semaphorin 4D was studied by in vitro pulldown assay (FIG. 3). • 1. Plexin B1 or Plexin A2 was immobilized on Sepharose beads. • 2. A cyclic peptide that bound to Plexin B1, a negative control peptide, or dimethylsulfoxide (DMSO) was added to Plexin-B1-immobilized beads. • 3. An alkali phosphatase (AP)-fused protein of Semaphorin 4D or Semaphorin 6A was added. • 4. After washing of the resulting beads, an increase in absorbance of the sample was measured at 405 nm to determined AP activity.
High AP activity relates to high interaction (5) between Semaphorin and Plexin and low AP activity relates to […] interaction (6) between Semaphorin and Plexin.

[3] = target: Plexin B1; experiment: KD (nM)
From the text: (§1) Table printed on a drawing sheet, FIG. 2
(§2) Head of the field: KD (nM)
(§3) The sequences from top to bottom are SEQ ID NO: 40, SEQ ID NO: 31, SEQ ID NO: 37, SEQ ID NO: 30, SEQ ID NO: 38, and SEQ ID NO: 39.
(§4) First copying reader's note: The sequences are only the variable region of the cyclic scaffold drawn in panel b, DW(Variable region)CS-NH2 closed by a thioether bridge.
(§5) Where the first naming reader finds the target: description_of_the_figure: the respective amino acid sequence of the cyclic peptides and their binding affinity to Plexin B1

[4] = test system: Plexin B1; experiment: Ka (µM^-1s^-1)
From the text: as §1
Head of the field: Ka (µM^-1s^-1)
as §3, §4, §5

[5] = test system: Plexin B1; experiment: Kd (s^-1)
From the text: as §1
Head of the field: Kd (s^-1)
as §3, §4, §5

[6] = test system: Plexin B1; experiment: kd (ms^-1)
From the text: (§6) Table printed on a drawing sheet, FIG. 13
Head of the field: kd (ms^-1)
(§7) First copying reader's note: Panel b of FIG. 13; panel a is a bar chart and is left out.

[7] = test system: Plexin B1; experiment: ka (μM^-1s^-1)
From the text: as §6
Head of the field: ka (μM^-1s^-1)
as §7

[8] = target: Plexin B1; experiment: KD (nM); remark: listed apart in the source
Description: (§8) Table printed on a drawing sheet, FIG. 11
as §2
(§9) First copying reader's note: Panel a of FIG. 11; the BC8 row is highlighted with a frame on the sheet.
(§10) Where the first naming reader finds the target: passage: its binding affinity to Plexin B1 was analyzed by surface resonance plasmon (SPR) (FIG. 11a)

[9] = test system: Plexin B1; experiment: kd (s^-1)
Description: as §8
Head of the field: kd (s^-1)
as §9, §10

[10] = target: Plexin B1; experiment: KD (nM); remark: listed apart in the source
From the text: as §6, §2, §7

[11] = target: T2, human Plexin B1 (human, UniProt O43157 20-535, limits assumed); experiment: SPR
T2 sequence (looked up): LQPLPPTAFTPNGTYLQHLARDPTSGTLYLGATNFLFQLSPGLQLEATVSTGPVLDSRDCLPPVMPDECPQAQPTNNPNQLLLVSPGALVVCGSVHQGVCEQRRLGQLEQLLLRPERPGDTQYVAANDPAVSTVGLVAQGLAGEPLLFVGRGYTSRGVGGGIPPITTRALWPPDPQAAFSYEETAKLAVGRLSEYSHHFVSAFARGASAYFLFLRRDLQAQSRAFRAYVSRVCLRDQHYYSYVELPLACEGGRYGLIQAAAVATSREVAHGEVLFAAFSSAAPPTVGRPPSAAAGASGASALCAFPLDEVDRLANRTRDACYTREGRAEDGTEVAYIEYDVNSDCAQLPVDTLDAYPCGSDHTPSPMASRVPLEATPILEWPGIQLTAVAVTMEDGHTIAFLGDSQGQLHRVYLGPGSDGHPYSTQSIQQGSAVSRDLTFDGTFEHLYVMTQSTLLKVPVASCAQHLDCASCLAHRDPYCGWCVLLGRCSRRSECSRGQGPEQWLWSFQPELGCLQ

[12] = target: T3, mouse Plexin B1 (mouse, UniProt Q8CJH3 20-535, limits assumed); experiment: SPR
T3 sequence (looked up): T1 sequence (Q8CJH3 20-535 limits assumed)

[13] = target: T2, human Plexin B1; experiment: SPR; remark: listed apart in the source
[14] = target: T2, human Plexin B1; experiment: SPR; remark: listed apart in the source

`CC[C@H](C)[C@@H]1NC(=O)[C@H](CCC(N)=O)NC(=O)CNC(=O)[C@H]([C@@H](C)O)NC(=O)[C@H](Cc2c[nH]c3ccccc23)NC(=O)[C@H](CCCNC(=N)N)NC(=O)[C@H](C)NC(=O)[C@H](C(C)C)NC(=O)[C@H](CCCNC(=N)N)NC(=O)[C@@H]2CCCN2C(=O)[C@H](CCCNC(=N)N)NC(=O)[C@@H](Cc2c[nH]c3ccccc23)NC(=O)CSC[C@@H](C(=O)N[C@@H](CO)C(N)=O)NC(=O)[C@H](Cc2ccc(O)cc2)NC(=O)[C@H]([C@@H](C)CC)NC1=O` [P6, wRPRVARWTGQITYC] ({CH2CO}-[dW]RPRVARWTGQIIYCS-NH2; thioether N-15 (inferred); N-terminus and C-terminus assumed) showed a half-life [1] of 180 to 360 min.

With `CC(C)[C@@H]1NC(=O)[C@H](Cc2ccc(O)cc2)NC(=O)[C@H](Cc2ccccc2)NC(=O)[C@H]([C@@H](C)O)NC(=O)CNC(=O)[C@H]([C@@H](C)O)NC(=O)[C@H](Cc2c[nH]c3ccccc23)NC(=O)[C@H](CCCNC(=N)N)NC(=O)[C@H](CC(=O)O)NC(=O)[C@H](Cc2ccc(O)cc2)NC(=O)[C@H](Cc2ccccc2)NC(=O)[C@H](Cc2c[nH]c3ccccc23)NC(=O)[C@H](CCCNC(=N)N)NC(=O)[C@@H](Cc2c[nH]c3ccccc23)NC(=O)CSC[C@@H](C(=O)NCC(N)=O)NC1=O` [mp6-2, wRWFYDRWTGTFYVC] ({CH2CO}-[dW]RWFYDRWTGTFYVCG-NH2; thioether N-15) the “interaction inhibiting activity between mouse Plexin B1 and Semaphorin 4D” value [2] was “equivalent to that of the cyclic peptide P6”.

With AVSNLPPRPHITYIE [P1] the Kd [3] was 700 nM, the “Ka” value [4] was 0.020 µM⁻¹ s⁻¹ and the “Kd” value [5] was 0.014 s⁻¹.

With NGTLSWQTYSHL [P8] the Kd [3] was 689 nM, the “Ka” value [4] was 0.053 µM⁻¹ s⁻¹ and the “Kd” value [5] was 0.037 s⁻¹.

With “P6dPEG5: dimerized cyclic peptide P6 (FIG. 12b) ({CH2CO}-[dW]RPRVARWTGQIIYCS; thioether N-15; also: dimer: two units joined after S16 by PEG linkers)” the “kd (ms^-1)” value [6] was 0.447 ms^-1 and the “ka” value [7] was 1.18 µM⁻¹ s⁻¹.

With “RPRAARWTGQIIY (not fully specified) [P5]” the Kd [3] was 77.1 nM, the “Ka” value [4] was 0.021 µM⁻¹ s⁻¹ and the “Kd” value [5] was 0.002 s⁻¹.

In the case of RVRVERWTGKLI (not fully specified) [P3], the Kd [3] is reported as 33.7 nM, the “Ka” value [4] is reported as 4.270 µM⁻¹ s⁻¹ and the “Kd” value [5] is reported as 0.144 s⁻¹.

In the case of wRPRVARWTGQITYC [P6], the Kd [8] is reported as 3.81 nM, the Kd [3] is reported as 3.5 nM and the “Ka” value [4] is reported as 3.460 µM⁻¹ s⁻¹. For the same molecule, the “kd” value [9] was 0.0151 s⁻¹, the “Kd” value [5] was 0.012 s⁻¹ and the Kd [10] was 3.34 nM.

In the case of {CH2CO}-[dW]RPRAARWTGQIIYCS (thioether N-15) [SEQ ID NO 37], the Kd [11] is reported as 77.1 nM, the koff [11] is reported as 0.002 s⁻¹ and the kon [11] is reported as 21000 M⁻¹ s⁻¹.

With {CH2CO}-[dW]NSNVLSWQTYSWYCS (thioether N-15) [SEQ ID NO 38] the Kd [11] was 275 nM, the koff [11] was 0.01 s⁻¹ and the kon [11] was 38000 M⁻¹ s⁻¹.

For {CH2CO}-[dW]LGYIARWTGTVVKCG (thioether N-15) [cyclic peptide mp6-3], the Kd [12] was 227 nM and the Kd [13] was 241 nM.

Work on {CH2CO}-[dW]LAYIERWTGQIVRCG (thioether N-15) [cyclic peptide mp6-5] yielded a Kd [12] of 507 nM and a Kd [13] of 174 nM.

In the case of {CH2CO}-[dW]RPRVARWTGQIIYCS (thioether N-15) [SEQ ID NO 30], the Kd [11] is reported as 3.5 nM, the koff [11] is reported as 0.012 s⁻¹ and the kon [11] is reported as 3.46e+06 M⁻¹ s⁻¹.

In the case of {CH2CO}-[dW]RVRVERWTGKLICS (thioether N-14) [SEQ ID NO 31], the Kd [11] is reported as 33.7 nM, the koff [11] is reported as 0.144 s⁻¹ and the kon [11] is reported as 4.27e+06 M⁻¹ s⁻¹.

Work on {CH2CO}-[dW]RAFIERWTGRLVVCG (thioether N-15) [cyclic peptide mp6-7] yielded a Kd [12] of 126 nM and a Kd [13] of 4.58 nM.

For {CH2CO}-[dW]NGTLSWQTYSHLCS (thioether N-14) [SEQ ID NO 39], the Kd [11] was 689 nM, the koff [11] was 0.037 s⁻¹ and the kon [11] was 53000 M⁻¹ s⁻¹.

{CH2CO}-[dW]RPRVARWTGQIIYCS (thioether N-15; also: dimer, two units joined after S16 by PEG linkers, also called dimerized cyclic peptide P6) [P6dPEG5] gave a Kd [14] of 0.38 nM and a kon [14] of 1.18e+06 M⁻¹ s⁻¹.

For {CH2CO}-[dW]AVSNLPPRPHITYIECS (thioether N-17) [SEQ ID NO 40], the Kd [11] was 700 nM, the koff [11] was 0.014 s⁻¹ and the kon [11] was 20000 M⁻¹ s⁻¹.
